Here are results for one substance from patent US20030176678A1.

The target of this test is intact IFNAR1 from human cells (IFNAR1 chain of the type I interferon receptor) (human) (UniProt P17181). As to the kind of experiment: cell-based or functional assay.
UniProt P17181, sequence (P17181 28-557): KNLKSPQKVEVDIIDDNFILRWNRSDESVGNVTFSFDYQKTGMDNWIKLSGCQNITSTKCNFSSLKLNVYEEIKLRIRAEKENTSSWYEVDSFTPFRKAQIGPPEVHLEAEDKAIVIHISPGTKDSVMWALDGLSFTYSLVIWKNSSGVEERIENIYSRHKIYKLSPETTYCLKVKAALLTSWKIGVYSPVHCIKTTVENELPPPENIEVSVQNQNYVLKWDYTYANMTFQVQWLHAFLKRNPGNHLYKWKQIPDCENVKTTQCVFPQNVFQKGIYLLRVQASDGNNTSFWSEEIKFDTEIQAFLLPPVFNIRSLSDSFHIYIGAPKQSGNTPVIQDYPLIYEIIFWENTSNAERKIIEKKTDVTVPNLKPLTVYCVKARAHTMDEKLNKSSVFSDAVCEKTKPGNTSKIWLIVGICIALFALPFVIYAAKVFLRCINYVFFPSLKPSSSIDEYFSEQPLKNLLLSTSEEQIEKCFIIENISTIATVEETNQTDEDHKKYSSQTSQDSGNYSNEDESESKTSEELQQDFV

As for “IR1B4/PRMT enzyme (endogenous protein of human myeloma U266S cells) (from UniProt Q99873 11-371)”, the reduction in the growth inhibitory effect of IFN-β on myeloma U266S cells by antisense-1 oligonucleotide (Alamar Blue) was less than 5 fold.
